Test results published in patent US20190292245A1 (published 2019).

Legend:
tauΔ2-18 [1] = biological target: T1, tauΔ2-18 (UniProt P10636-8 1-441); assay: blot
T1 construct: Deletion of residues 2-18; also called tau that lacks 2-18 domain; recombinant tauΔ2-18

tauΔ2-18 [2] = biological target: T1, tauΔ2-18; assay: Western blot

T1 sequence (P10636 other isoform, or with tags, fused parts or gaps mutant limits assumed): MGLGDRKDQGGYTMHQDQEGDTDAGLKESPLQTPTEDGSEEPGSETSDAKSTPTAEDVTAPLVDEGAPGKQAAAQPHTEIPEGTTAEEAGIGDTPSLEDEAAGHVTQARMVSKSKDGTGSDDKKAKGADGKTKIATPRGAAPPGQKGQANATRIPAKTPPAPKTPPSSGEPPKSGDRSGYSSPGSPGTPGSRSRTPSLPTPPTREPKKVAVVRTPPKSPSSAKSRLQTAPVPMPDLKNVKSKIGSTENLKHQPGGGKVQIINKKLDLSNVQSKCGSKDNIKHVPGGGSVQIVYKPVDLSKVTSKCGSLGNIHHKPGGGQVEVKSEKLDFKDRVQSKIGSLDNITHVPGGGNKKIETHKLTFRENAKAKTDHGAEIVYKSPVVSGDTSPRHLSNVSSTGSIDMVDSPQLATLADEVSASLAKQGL

| binding result (tauΔ2-18 [1]) | binding result (tauΔ2-18 [2]) | Binder |
| --- | --- | --- |
| no binding |  | Armanezumab (antibody, V domains shown, Fully humanized IgG derived from 1C9; also called humanized 1C9) VH: QVQLVQSGAEVKKPGASVKVSCKASGYTFTNHWMHWVRQAPGQGLEWMGAIDPGNSDTSYNQKFKGRVTMTRDTSTSTVYMELSSLRSEDTAVYYCARRDFFGGEYAVDYWGQGTLVTVSS VL: DIVMTQSPLSLPVTPGEPASISCRSSQSLVHSNGNTYLHWYLQKPGQSPQLLIYKVSNRFSGVPDRFSGSGSGTDFTLKISRVEAEDVGVYYCSQSTHVPWTFGQGTKVEIKR |
|  | no binding | mouse monoclonal antibody 1C9 (antibody, V domains shown, also called 1C9 mAb; 1C9 moAb) VH: EVQLQQSGTVLARPGASVKMSCKTSGYTFTNHWMHWVKQRPGQGLEWIGAIDPGNSDTSYNQKFKGQAKLTAVTSASTAFMELSSLTNEDSAVYYCTRRDFFGGEYAVDYWGQGTSVTVSS VL: DVVMTQTPLSLPVSLGDQASISCRSSQSLVHSNGNTYLHWYLQKPGQSPKLLIYKVSNRFSGVPDRFSGSGSGTDFTLKISRVEAEDLGVYFCSQSTHVPWTFGGGTKLEIK |
